These results are taken from patent US20100136539A1.

The target of experiment [1] is Ezrin (human) (UniProt P15311). Put plainly: Vidas sandwich ELISA, 1/50 Caco2 lysate; negative control as capture, detection 4G11B5-biotin. (ELISA stands for enzyme-linked immunosorbent assay.)
The target in experiment [2] is Ezrin (human) (UniProt P15311). Put plainly: Vidas sandwich ELISA, 1/50 Caco2 lysate; negative control as capture, detection 4A7A6C1-biotin.

UniProt P15311, sequence (P15311 whole entry): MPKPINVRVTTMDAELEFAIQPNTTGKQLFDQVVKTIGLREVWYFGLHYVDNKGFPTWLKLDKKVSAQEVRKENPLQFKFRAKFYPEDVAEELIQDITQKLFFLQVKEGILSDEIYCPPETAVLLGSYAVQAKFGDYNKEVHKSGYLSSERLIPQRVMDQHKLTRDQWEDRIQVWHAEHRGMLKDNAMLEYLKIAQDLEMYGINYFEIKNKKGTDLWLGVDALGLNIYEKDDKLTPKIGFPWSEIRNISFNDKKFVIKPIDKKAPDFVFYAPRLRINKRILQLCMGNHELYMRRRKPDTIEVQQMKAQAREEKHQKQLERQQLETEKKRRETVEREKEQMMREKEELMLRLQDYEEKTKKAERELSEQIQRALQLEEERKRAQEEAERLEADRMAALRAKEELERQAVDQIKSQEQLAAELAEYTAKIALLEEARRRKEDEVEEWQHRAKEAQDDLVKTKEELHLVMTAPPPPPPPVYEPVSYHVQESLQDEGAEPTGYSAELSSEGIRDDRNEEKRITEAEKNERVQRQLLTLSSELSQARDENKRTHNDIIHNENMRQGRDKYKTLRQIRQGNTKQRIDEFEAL

As for Negative control, the Vidas sandwich immunoassay signal in experiment [1] came out at 2.5 RFV; in experiment [2] it was 3 RFV.
